In patent publication US20260116921A1, “PEPTIDE INHIBITORS OF INTERLEUKIN-23 RECEPTOR AND THEIR USE TO TREAT INFLAMMATORY DISEASES” (priority 2018, published 2026):
Bridge positions count the residues as written; N and C are the ends. Square brackets hold non-standard residues; d marks the D form. Trp(4-OMe) = COc1cccc2[nH]cc(C[C@H](N)C(=O)O)c12; Trp(5-Cl) = N[C@@H](Cc1c[nH]c2ccc(Cl)cc12)C(=O)O; Trp(5-OH) = N[C@@H](Cc1c[nH]c2ccc(O)cc12)C(=O)O; AEF = NCCOc1ccc(C[C@H](N)C(=O)O)cc1; αMeL = CC(C)C[C@](C)(N)C(=O)O; Pen = CC(C)(S)[C@H](N)C(=O)O

Tests used:
IL-23R [1] = biological target: T1, IL-23R (Homo sapiens, UniProt Q5VWK5); assay: DB cells IL23R pSTAT3 cell assay (pStat3 HTRF); type: cell-based; conditions: Table E3; DB cells, IL-23 0.5 nM, 30 minutes at 37° C.; read-out: pStat3 HTRF (IC50)
T1 sequence (Q5VWK5 24-629): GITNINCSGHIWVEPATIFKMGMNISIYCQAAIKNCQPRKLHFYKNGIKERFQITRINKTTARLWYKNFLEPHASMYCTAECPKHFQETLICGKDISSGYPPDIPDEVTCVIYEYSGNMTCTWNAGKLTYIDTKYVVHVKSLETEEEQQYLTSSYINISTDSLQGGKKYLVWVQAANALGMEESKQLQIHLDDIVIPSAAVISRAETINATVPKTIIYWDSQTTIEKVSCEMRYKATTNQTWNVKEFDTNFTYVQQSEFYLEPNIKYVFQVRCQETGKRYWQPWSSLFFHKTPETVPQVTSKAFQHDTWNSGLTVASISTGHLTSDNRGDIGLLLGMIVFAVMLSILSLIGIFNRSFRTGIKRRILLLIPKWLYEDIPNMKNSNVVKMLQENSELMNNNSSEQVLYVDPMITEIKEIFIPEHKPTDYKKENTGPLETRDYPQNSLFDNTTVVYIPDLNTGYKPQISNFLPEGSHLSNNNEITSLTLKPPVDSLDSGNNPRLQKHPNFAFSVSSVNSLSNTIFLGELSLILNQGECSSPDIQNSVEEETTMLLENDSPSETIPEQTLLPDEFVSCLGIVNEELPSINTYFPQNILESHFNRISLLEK
Summary of the method: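 HTRF readout of lysate pSTAT3 (Tyr705) after two-plate processing. Peptide dilution series co-incubated with IL-23 (0.5 nM final) on 5×10E5 IL-23R-expressing DB cells per well, 30 min, 37 °C.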

[2] = 20% cynomolgus monkey fecal homogenate, 37° C., 20 μM
[3] = 20% human fecal homogenate, 37° C., 20 μM
IL-23R [4] = biological target: T2, IL-23R (human, UniProt Q5VWK5 24-629); assay: cell-based or functional assay
T2 sequence (looked up): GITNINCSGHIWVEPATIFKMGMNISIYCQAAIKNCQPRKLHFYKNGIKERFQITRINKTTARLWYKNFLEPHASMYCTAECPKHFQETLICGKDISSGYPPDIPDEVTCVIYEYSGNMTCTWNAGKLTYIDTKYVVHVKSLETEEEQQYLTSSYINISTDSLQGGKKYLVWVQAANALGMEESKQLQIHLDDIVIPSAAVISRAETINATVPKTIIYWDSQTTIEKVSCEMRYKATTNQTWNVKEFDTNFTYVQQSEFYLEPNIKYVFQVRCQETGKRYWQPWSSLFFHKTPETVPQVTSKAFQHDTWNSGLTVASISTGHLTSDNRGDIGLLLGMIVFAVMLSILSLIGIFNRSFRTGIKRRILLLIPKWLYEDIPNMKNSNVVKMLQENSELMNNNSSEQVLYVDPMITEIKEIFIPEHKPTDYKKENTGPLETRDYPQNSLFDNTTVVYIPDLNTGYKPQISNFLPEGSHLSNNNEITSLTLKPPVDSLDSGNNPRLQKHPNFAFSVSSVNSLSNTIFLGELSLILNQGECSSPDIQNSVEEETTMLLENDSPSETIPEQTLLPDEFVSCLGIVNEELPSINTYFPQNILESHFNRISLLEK

IL-23R [5] = biological target: T2, IL-23R; assay: cell-based or functional assay; remark: listed apart in the source

Row | Molecule | pStat3 HTRF (nM) IC50 (IL-23R [4]) | further results
1 | CC(=O)NCCCC[C@H](NC(=O)[C@](C)(CCCCN)NC(=O)[C@H](Cc1ccc2ccccc2c1)NC(=O)[C@H](Cc1ccc(OCCN)cc1)NC(=O)[C@H]1NC(=O)[C@H](CCC(N)=O)NC(=O)[C@H](Cc2c[nH]c3c(C)cccc23)NC(=O)[C@H]([C@@H](C)O)NC(=O)[C@H](CC(N)=O)NC(=O)[C@@H](NC(C)=O)C(C)(C)SSC1(C)C)C(=O)N[C@@H](CC(N)=O)C(=O)NCCC(N)=O [compound 267] |  | IC50 (IL-23R [1]): < 1 nM; t½: Monkey Feces anaerobic [2]: 4 h
2 | CC(=O)NCCCC[C@H](NC(=O)[C@](C)(CC(C)C)NC(=O)[C@H](Cc1ccc2ccccc2c1)NC(=O)[C@H](Cc1ccc(OCCN)cc1)NC(=O)[C@H]1NC(=O)[C@H](CCC(N)=O)NC(=O)[C@H](Cc2c[nH]c3c(C)cccc23)NC(=O)[C@H]([C@@H](C)O)NC(=O)[C@H](CC(N)=O)NC(=O)[C@@H](NC(C)=O)C(C)(C)SSC1(C)C)C(=O)N1CCC[C@H]1C(=O)NCCC(N)=O [compound 211] |  | t½: Human Feces anaerobic [3]: 10 h; IC50 (IL-23R [1]): > 100 nM; t½: Monkey Feces anaerobic [2]: >24 h
3 | Ac-[Pen]NTWQ[Pen][AEF][Trp(4-OMe)][αMeL]K(Ac)NN-NH2 (disulfide 1-6; SMILES COc1cccc2[nH]cc(C[C@H](NC(=O)[C@H](Cc3ccc(OCCN)cc3)NC(=O)[C@H]3NC(=O)[C@H](CCC(N)=O)NC(=O)[C@H](Cc4c[nH]c5ccccc45)NC(=O)[C@H]([C@@H](C)O)NC(=O)[C@H](CC(N)=O)NC(=O)[C@@H](NC(C)=O)C(C)(C)SSC3(C)C)C(=O)N[C@@](C)(CC(C)C)C(=O)N[C@@H](CCCCNC(C)=O)C(=O)N[C@@H](CC(N)=O)C(=O)N[C@@H](CC(N)=O)C(N)=O)c12) [SEQ ID NO: 15] | > 100 nM | 
4 | XNTXQXXXXKNN (Ac-[Pen]-NT-[W(7-Me)]-Gln-[Pen]-[Phe[4-(2-aminoethoxy)]-[2-Nal]-[α-MeLeu]-[Lys(Ac)]-NN-NH2; Pen-Pen disulfide) [SEQ ID NO: 6] | < 1 nM | NK Cell Assay (nM) IC50 (IL-23R [5]): < 10 nM
5 | XNTXQXXXXKNN (Ac-[Pen]-NT-[W(5-Br)]-Gln-[Pen]-[Phe[4-(2-aminoethoxy)]-[2-Nal]-[α-MeLeu]-[Lys(Ac)]-NN-NH2; Pen-Pen disulfide) [SEQ ID NO: 11] | > 100 nM | 
6 | Ac-[Pen]NTWQ[Pen][AEF][Trp(5-Cl)][αMeL]K(Ac)NN-NH2 (disulfide 1-6; SMILES CC(=O)NCCCC[C@H](NC(=O)[C@](C)(CC(C)C)NC(=O)[C@H](Cc1c[nH]c2ccc(Cl)cc12)NC(=O)[C@H](Cc1ccc(OCCN)cc1)NC(=O)[C@H]1NC(=O)[C@H](CCC(N)=O)NC(=O)[C@H](Cc2c[nH]c3ccccc23)NC(=O)[C@H]([C@@H](C)O)NC(=O)[C@H](CC(N)=O)NC(=O)[C@@H](NC(C)=O)C(C)(C)SSC1(C)C)C(=O)N[C@@H](CC(N)=O)C(=O)N[C@@H](CC(N)=O)C(N)=O) [SEQ ID NO: 12] | > 100 nM | 
7 | Ac-[Pen]NTWQ[Pen][AEF][Trp(5-OH)][αMeL]K(Ac)NN-NH2 (disulfide 1-6; SMILES CC(=O)NCCCC[C@H](NC(=O)[C@](C)(CC(C)C)NC(=O)[C@H](Cc1c[nH]c2ccc(O)cc12)NC(=O)[C@H](Cc1ccc(OCCN)cc1)NC(=O)[C@H]1NC(=O)[C@H](CCC(N)=O)NC(=O)[C@H](Cc2c[nH]c3ccccc23)NC(=O)[C@H]([C@@H](C)O)NC(=O)[C@H](CC(N)=O)NC(=O)[C@@H](NC(C)=O)C(C)(C)SSC1(C)C)C(=O)N[C@@H](CC(N)=O)C(=O)N[C@@H](CC(N)=O)C(N)=O) [SEQ ID NO: 21] | > 100 nM | 
8 | XNTXQXXXXKNN (Ac-[Pen]-NT-[W(5-OH)]-Gln-[Pen]-[Phe[4-(2-aminoethoxy)]-[2-Nal]-[α-MeLeu]-[Lys(Ac)]-NN-NH2; Pen-Pen disulfide) [SEQ ID NO: 10] | > 100 nM | 
9 | XNTXQXXXXKNN (Ac-[Pen]-NT-[W(5-OMe)]-Gln-[Pen]-[Phe[4-(2-aminoethoxy)]-[2-Nal]-[α-MeLeu]-[Lys(Ac)]-NN-NH2; Pen-Pen disulfide) [SEQ ID NO: 9] | > 100 nM | 
